In this series the target is CD63 on SH-SY5Y exosomes (UniProt P08962 2-238). The series is described as follows: flow cytometry on exosome-coated microspheres; 200 nM probe; 5 mM Mg2+; about 10^3-fold (printed 103-fold) fluorescence over control and MU-Cy5; 1x PBS, 5 mM MgCl2, 0.2% BSA (w/v), 37 C, 1 h; exosome-coated microspheres blocked with glycine/BSA; pH not stated. To be noted: protein: native; label: 3' Cy5. A general note: A flow cytometer gives signals particle by particle.
Chain of CD63 on SH-SY5Y exosomes (P08962 2-238): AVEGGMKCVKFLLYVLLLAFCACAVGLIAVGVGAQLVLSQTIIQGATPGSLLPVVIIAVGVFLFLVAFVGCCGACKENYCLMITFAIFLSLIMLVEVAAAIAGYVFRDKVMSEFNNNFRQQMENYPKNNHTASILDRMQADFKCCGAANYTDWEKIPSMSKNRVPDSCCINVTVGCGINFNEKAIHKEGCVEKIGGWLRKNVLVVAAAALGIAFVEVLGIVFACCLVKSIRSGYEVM

B1: Apt-CD63-Cy5 (ssDNA)
DNA: ATATACACCCCACCTCGCTCCCGTGACACTAATGCTATTTTTTTTTTTTTTTGACGCTAATAGTTAAGACGCT
Regarding B1, the binding result is on record as “binds”.
